Results on three substances are retold here after article PMC10583602.

For assay [1], the target named is TnsC with the apical loop E69-D75 deleted (Vibrio cholerae). Briefly: SEC. On the technique in general: In gel filtration, larger molecules generally elute earlier.
Assay [2] concerns the target TnsC(ΔA106–A113) (Vibrio cholerae). The assay can be described thus: SEC.
Assay [3] addresses Vibrio cholerae TnsC (VchTnsC), full length, tag cleaved (Vibrio cholerae). The assay can be described thus: SEC.
Assay [4] has the same target. Briefly: cryo-EM structure.

In assay [1], “TnsC with the apical loop E69-D75 deleted (natural protein)” yielded a stoichiometry N of 7. As to TnsC(ΔA106–A113) (natural protein), in assay [2], the stoichiometry N came out at 7.

Turning to “Vibrio cholerae TnsC (VchTnsC), full length, tag cleaved (natural protein)”, the stoichiometry N in assay [3] and in assay [4] was 7 each time.

What is called stoichiometry N is a count of units in the complex or per binding partner.
